Results: patent publication US20210317227A1

Experiments:
Assay in all cases: cell-based or functional assay
[1] = biological target: FcγRIIIa on Jurkat effector cells (UniProt P08637)
[2] = biological target: FcγRIIIa on NK cells (secondary ADCC assays) (UniProt P08637)
[3] = biological target: FcγRIIa on M2c macrophages (secondary ADCP assay) (UniProt P12318)
[4] = biological target: human FcγRIIa-H variant on Jurkat effector cells (human) (UniProt P12318)

Substance: fucosylated anti-CD20 IgG1 monoclonal antibody (obinutuzumab)
- EC50 (nM) Mean [1]: 7.1 nM
- EC50 (nM) Mean [2]: 0.033 nM
- EC50 (nM) Mean [3]: 0.82 nM
- EC50 (nM) Mean [4]: 7.1 nM

Substance: fucosylated anti-PD-L1 IgG1 monoclonal antibody (avelumab)
- EC50 (nM) Mean [1]: 0.049 nM

Substance: afucosylated anti-PD-L1 IgG1 monoclonal antibody (avelumab)
- EC50 (nM) Mean [2]: 0.0054 nM

Substance: afucosylated anti-CD20 IgG1 monoclonal antibody (obinutuzumab)
- EC50 (nM) Mean [3]: 0.37 nM
